Measurements from patent US12295987B2, “Method of using a GIP/GLP1 co-agonist for diabetes” (Eli Lilly and Company, priority 2018, dated 2025).

biological target: T1, human gastric inhibitory peptide receptor (hGIPR) (Homo sapiens, UniProt P48546); assay: cAMP pharmacological functional assay in presence of 0.1% casein, hGIPR; format: cell-based; details: ratio of hGIPR to hGLP1R cAMP EC50 ratios
T1 construct: expressed in transfected cells; host or cells: HEK293
T1 sequence (P48546 22-466): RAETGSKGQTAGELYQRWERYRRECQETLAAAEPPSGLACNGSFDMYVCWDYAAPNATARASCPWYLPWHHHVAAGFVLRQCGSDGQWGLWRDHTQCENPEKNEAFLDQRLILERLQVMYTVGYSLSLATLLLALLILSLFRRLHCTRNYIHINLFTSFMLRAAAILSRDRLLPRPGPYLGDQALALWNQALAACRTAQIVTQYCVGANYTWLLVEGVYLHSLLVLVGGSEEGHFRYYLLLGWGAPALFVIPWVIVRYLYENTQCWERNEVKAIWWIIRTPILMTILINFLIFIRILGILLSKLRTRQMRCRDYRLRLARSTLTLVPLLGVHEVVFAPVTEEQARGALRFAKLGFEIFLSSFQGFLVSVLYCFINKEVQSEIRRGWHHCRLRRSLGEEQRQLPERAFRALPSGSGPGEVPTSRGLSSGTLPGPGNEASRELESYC

| Substance | [hGIPR/hGLP1R] EC50 Ratio |
| --- | --- |
| Y-Aib-EGT-αMeF(2F)-TSDLSI-αMeL-LD-Orn-K((2-[2-(2-Amino-ethoxy)-ethoxy]-acetyl)2-(γGlu)-CO—(CH2)16—CO2H)AQ-Aib-AFI-(D-Glu)-αMeY-LIEGGPSSGAPPPS-NH2 (YXEGTXTSDLSIXLDXKAQXAFIXXLIEGGPSSGAPPPS; Aib, Orn, αMe residues, lipidated Lys, D-Glu, amide; (2)..(2) Xaa at position 2 is Aib; (6)..(6) Xaa at position 6 is alpha-methyl-Phe(2F); (13)..(13) Xaa at position 13 is alpha-methyl-Leu; (16)..(16) Xaa at position 16 is Orn; MOD_RES (17)..(17) Lys at position 17 is chemically modified by conjugation of the epsilon-amino group of the Lys side chain with (2-[2-(2-amino-ethoxy)-ethoxy]-acetyl)2-(gamma-Glu)-CO-(CH2)16- CO2H; (20)..(20) Xaa at positi) [Peptide 244] | 6.41 |
| Y-Aib-EGT-αMeF(2F)-TSDLSI-αMeL-LD-Orn-K((2-[2-(2-Amino-ethoxy)-ethoxy]-acetyl)2-(γGlu)-CO—(CH2)16—CO2H)AQ-Aib-EFI-(D-Glu)-αMeY-LIEGGPSSGAPPPS-NH2 (YXEGTXTSDLSIXLDXKAQXEFIXXLIEGGPSSGAPPPS; Aib, Orn, αMe residues, lipidated Lys, D-Glu, amide; (2)..(2) Xaa at position 2 is Aib; (6)..(6) Xaa at position 6 is alpha-methyl-Phe(2F); (13)..(13) Xaa at position 13 is alpha-methyl-Leu; (16)..(16) Xaa at position 16 is Orn; MOD_RES (17)..(17) Lys at position 17 is chemically modified by conjugation of the epsilon-amino group of the Lys side chain with (2-[2-(2-amino-ethoxy)-ethoxy]-acetyl)2-(gamma-Glu)-CO-(CH2)16- CO2H; (20)..(20) Xaa at positi) [Peptide 238] | 6.37 |
| Y-Aib-EGT-αMeF(2F)-TSDLSI-αMeL-LD-Orn-K((2-[2-(2-Amino-ethoxy)-ethoxy]-acetyl)2-(γGlu)-CO—(CH2)16—CO2H)AQ-Aib-TFI-(D-Glu)-αMeY-LIEGGPSSGAPPPS-NH2 (YXEGTXTSDLSIXLDXKAQXTFIXXLIEGGPSSGAPPPS; Aib, Orn, αMe residues, lipidated Lys, D-Glu, amide; (2)..(2) Xaa at position 2 is Aib; (6)..(6) Xaa at position 6 is alpha-methyl-Phe(2F); (13)..(13) Xaa at position 13 is alpha-methyl-Leu; (16)..(16) Xaa at position 16 is Orn; MOD_RES (17)..(17) Lys at position 17 is chemically modified by conjugation of the epsilon-amino group of the Lys side chain with (2-[2-(2-amino-ethoxy)-ethoxy]-acetyl)2-(gamma-Glu)-CO-(CH2)16- CO2H; (20)..(20) Xaa at positi) [Peptide 243] | 7.12 |
| Y-Aib-EGT-αMeF(2F)-TSDLSI-αMeL-LDEK((2-[2-(2-Amino-ethoxy)-ethoxy]-acetyl)2-(γGlu)-CO—(CH2)18—CO2H)AQ-Aib-EFI-(D-Glu)-YLIEGGPSSGAPPPS-NH2 (YXEGTXTSDLSIXLDEKAQXEFIXYLIEGGPSSGAPPPS; Aib, αMeF(2F), αMeL, D-Glu; lipidated K; amide; (2)..(2) Xaa at position 2 is Aib; (6)..(6) Xaa at position 6 is alpha-methyl-Phe(2F); (13)..(13) Xaa at position 13 is alpha-methyl-Leu; MOD_RES (17)..(17) Lys at position 17 is chemically modified by conjugation of the epsilon-amino group of the Lys side chain with (2-[2-(2-amino-ethoxy)-ethoxy]-acetyl)2-(gamma-Glu)-CO-(CH2)18- CO2H; (20)..(20) Xaa at position 20 is Aib; (24)..(24) Xaa at positi) [Peptide 183] | 3.68 |
| Y-Aib-EGT-αMeF(2F)-TSDQSI-αMeL-LDEK((2-[2-(2-Amino-ethoxy)-ethoxy]-acetyl)2-(γGlu)-CO—(CH2)18—CO2H)AQ-Aib-EFI-(D-Glu)-YLIEGGPSSGAPPPS-NH2 (YXEGTXTSDQSIXLDEKAQXEFIXYLIEGGPSSGAPPPS; Aib, αMeF(2F), αMeL, D-Glu; lipidated K; amide; (2)..(2) Xaa at position 2 is Aib; (6)..(6) Xaa at position 6 is alpha-methyl-Phe(2F); (13)..(13) Xaa at position 13 is alpha-methyl-Leu; MOD_RES (17)..(17) Lys at position 17 is chemically modified by conjugation of the epsilon-amino group of the Lys side chain with (2-[2-(2-amino-ethoxy)-ethoxy]-acetyl)2-(gamma-Glu)-CO-(CH2)18- CO2H; (20)..(20) Xaa at position 20 is Aib; (24)..(24) Xaa at positi) [Peptide 187] | 6.57 |
| Y-Aib-EGT-αMeF(2F)-TSDVSI-αMeL-LD-Orn-K((2-[2-(2-Amino-ethoxy)-ethoxy]-acetyl)2-(γGlu)-CO—(CH2)16—CO2H)AQ-Aib-AFI-(D-Glu)-αMeY-LIEGGPSSGAPPPS-NH2 (YXEGTXTSDVSIXLDXKAQXAFIXXLIEGGPSSGAPPPS; Aib, Orn, αMe residues, lipidated Lys, D-Glu, amide; (2)..(2) Xaa at position 2 is Aib; (6)..(6) Xaa at position 6 is alpha-methyl-Phe(2F); (13)..(13) Xaa at position 13 is alpha-methyl-Leu; (16)..(16) Xaa at position 16 is Orn; MOD_RES (17)..(17) Lys at position 17 is chemically modified by conjugation of the epsilon-amino group of the Lys side chain with (2-[2-(2-amino-ethoxy)-ethoxy]-acetyl)2-(gamma-Glu)-CO-(CH2)16- CO2H; (20)..(20) Xaa at positi) [Peptide 242] | 2.85 |
| Y-Aib-EGT-αMeF(2F)-TSDVSI-αMeL-LD-Orn-K((2-[2-(2-Amino-ethoxy)-ethoxy]-acetyl)2-(γGlu)-CO—(CH2)16—CO2H)AQ-Aib-TFI-(D-Glu)-αMeY-LIEGGPSSGAPPPS-NH2 (YXEGTXTSDVSIXLDXKAQXTFIXXLIEGGPSSGAPPPS; Aib, Orn, αMe residues, lipidated Lys, D-Glu, amide; (2)..(2) Xaa at position 2 is Aib; (6)..(6) Xaa at position 6 is alpha-methyl-Phe(2F); (13)..(13) Xaa at position 13 is alpha-methyl-Leu; (16)..(16) Xaa at position 16 is Orn; MOD_RES (17)..(17) Lys at position 17 is chemically modified by conjugation of the epsilon-amino group of the Lys side chain with (2-[2-(2-amino-ethoxy)-ethoxy]-acetyl)2-(gamma-Glu)-CO-(CH2)16- CO2H; (20)..(20) Xaa at positi) [Peptide 241] | 3.77 |
